Laboratory results taken from US20260274955A1 (JANUX THERAPEUTICS, published 2026).
No end group written: not given here.

Experiments:
[1] = target: T1, anti-CD28 Fab (SEQ ID NOs: 202, 203); experiment: binding ELISA, peptide captured, anti-CD28 Fab titrated
T1 construct: biotinylated when captured in the phage ELISAs

[2] = target: T2, Ab-1; experiment: competition ELISA, peptide titrated vs 1 nM Ab-1 binding plate-bound CD28
T2 construct: also called anti-CD28 scFv harbored in Ab-1

[3] = target: T2, Ab-1; experiment: binding ELISA, peptide captured, Ab-1 titrated
[4] = target: T2, Ab-1; experiment: BLI (Octet), 200 nM peptide, 100 nM Ab-1;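 also: association and dissociation phases tracked in real time, with kinetics fitted to a 1:1 interaction model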
[5] = target: anti-CD28 Fab (SEQ ID NOs: 202, 203); experiment: phage binding ELISA; biotinylated anti-CD28 Fab captured on neutravidin plate, clonal phage supernatant, anti-M13-HRP detection;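 also: before crude clonal phage supernatants were added, wells were preincubated with CD28 antigen in blocking buffer or with blocking buffer only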
[6] = target: anti-CD28 Fab (SEQ ID NOs: 202, 203); experiment: phage binding ELISA; captured anti-CD28 Fab pre-incubated with CD28 antigen as competitor, anti-M13-HRP detection

Binder	EC50 [1] [nM]	IC50 [2] [nM]	EC50 [3] [nM]	Octet signal [4]	t1/2 [4] [min]	other results
SCSAGAHYPWPQCF (cysteine pairing not given here; also: biotinylated, site not given here) [Peptide-100]	19	–	–	–	–	–
LCAAGASWPWPVCL (cysteine pairing not given here; also: biotinylated, site not given here) [Peptide-90]	13.1	–	–	–	–	–
TCSAGATWAWPLCF (cysteine pairing not given here; also: biotinylated, site not given here) [Peptide-104]	15.6	–	–	–	–	–
TCAAGAAWPWPQCL (cysteine pairing not given here; also: biotinylated, site not given here) [Peptide-92]	2.6	–	–	–	–	–
TCAAGATYLWPTCL (cysteine pairing not given here; also: biotinylated, site not given here) [Peptide-105]	20.5	–	–	–	–	–
TCAAGAAWGWPLCF (cysteine pairing not given here; also: biotinylated, site not given here) [Peptide-95]	5.6	–	–	–	–	–
ADWCPRDLWVHCFA (cysteine pairing not given here; also: biotinylated, site not given here) [Peptide-2]	–	2000	75.9	0.7	3.1	–
LDWCPRDLWVHCFA (cysteine pairing not given here; also: biotinylated, site not given here) [Peptide-11]	–	630	23.4	1.37	4.5	–
WDWCPRDLWVHCFA (cysteine pairing not given here; also: biotinylated, site not given here) [Peptide-17]	–	2800	21.7	1.15	4.1	–
GDWCPRDLWVHCFA (cysteine pairing not given here; also: biotinylated, site not given here) [Peptide-8]	–	7060	73.9	0.479	3.9	–
IDWCPRDLWVHCFA (cysteine pairing not given here; also: biotinylated, site not given here) [Peptide-10]	–	2660	44.9	0.845	3.1	–
VDWCPRDLWVHCFA (cysteine pairing not given here; also: biotinylated, site not given here) [Peptide-19]	–	4420	32.5	0.919	2.9	–
YDWCPRDLWVHCFA (cysteine pairing not given here; also: biotinylated, site not given here) [Peptide-18]	–	3250	32.2	0.849	2.9	–
NDWCPRDLWVHCFA (cysteine pairing not given here; also: biotinylated, site not given here) [Peptide-4]	–	5030	84.3	0.434	4	–
DDWCPRDLWVHCFA (cysteine pairing not given here; also: biotinylated, site not given here) [Peptide-5]	–	4460	86.8	0.461	4.2	–
FDWCPRDLWVHCFA (cysteine pairing not given here; also: biotinylated, site not given here) [Peptide-13]	–	780	39.3	1.01	3.3	–
SDWCPRDLWVHCFA (cysteine pairing not given here; also: biotinylated, site not given here) [Peptide-15]	–	2630	66.5	0.551	2.9	–
PDWCPRDLWVHCFA (cysteine pairing not given here; also: biotinylated, site not given here) [Peptide-14]	–	8340	102	0.328	3.4	–

Binder	EC50 [1] [nM]	IC50 [2] [nM]	EC50 [3] [nM]	Octet signal [4]	t1/2 [4] [min]	other results
HDWCPRDLWVHCFA (cysteine pairing not given here; also: biotinylated, site not given here) [Peptide-9]	–	2180	45.4	0.737	3	–
TCSAGATYTWPKCF (cysteine pairing not given here; also: biotinylated, site not given here) [Peptide-93]	15.7	–	–	–	–	–
TCSAGATWPWPICL (cysteine pairing not given here; also: biotinylated, site not given here) [Peptide-89]	2.1	–	–	–	–	–
ICAAGAGWPWPWCL [Phage-1245]	–	–	–	–	–	Anti-CD28 Fab (SEQ ID NOs: 202, 203) signal [5]: 0.75; Anti-CD28 Fab signal in the presence of CD28 [6]: 0.1
WCSAVFSYQWPPCF [Phage-1242]	–	–	–	–	–	Anti-CD28 Fab (SEQ ID NOs: 202, 203) signal [5]: 0.78
TCSAGAHYPWPICL (cysteine pairing not given here; also: biotinylated, site not given here) [Peptide-102]	10.6	–	–	–	–	–
TCAAGAHYPWPACL (cysteine pairing not given here; also: biotinylated, site not given here) [Peptide-106]	4.2	–	–	–	–	–
LCAAGATYPWPLCL (cysteine pairing not given here; also: biotinylated, site not given here) [Peptide-96]	5.6	–	–	–	–	–
LCAAGATYPWPTCL (cysteine pairing not given here; also: biotinylated, site not given here) [Peptide-99]	25.8	–	–	–	–	–
TCSAGATYGWPACF [Phage-1244]	–	–	–	–	–	Anti-CD28 Fab (SEQ ID NOs: 202, 203) signal [5]: 0.76; Anti-CD28 Fab signal in the presence of CD28 [6]: 0.07
TCSAGATYKWPMCF [Phage-1243]	–	–	–	–	–	Anti-CD28 Fab (SEQ ID NOs: 202, 203) signal [5]: 0.77; Anti-CD28 Fab signal in the presence of CD28 [6]: 0.07
ECSAGAMWGWPACF [Phage-1246]	–	–	–	–	–	Anti-CD28 Fab (SEQ ID NOs: 202, 203) signal [5]: 0.73; Anti-CD28 Fab signal in the presence of CD28 [6]: 0.09
TCSAGAAYSWPACF (cysteine pairing not given here; also: biotinylated, site not given here) [Peptide-98]	24.3	–	–	–	–	–
TCSAGASYPWPLCL (cysteine pairing not given here; also: biotinylated, site not given here) [Peptide-91]	5.3	–	–	–	–	–
TCSAGAAYPWPLCL (cysteine pairing not given here; also: biotinylated, site not given here) [Peptide-97]	4.4	–	–	–	–	–
TCSAGATYEWPRCL (cysteine pairing not given here; also: biotinylated, site not given here) [Peptide-101]	12.8	–	–	–	–	–
SCSAGAAYYWPWCL (cysteine pairing not given here; also: biotinylated, site not given here) [Peptide-103]	112	–	–	–	–	–
TCAAGATWSWPACF (cysteine pairing not given here; also: biotinylated, site not given here) [Peptide-94]	4.5	–	–	–	–	–
